Results on 3 molecules are retold here after publication PMC7046147, “Impaired DNA-binding affinity of novel PAX6 mutations”.

What all share (experiment): ITC; ITC (iTC200) at 25 °C in buffer C (composition not given; protein stored in 25 mM Hepes pH 7.5, 150 mM NaCl, 5 mM b-ME); 20 uM protein in cell, 200 uM DNA in syringe, one-site model
For orientation: In ITC the heat of successive injections is recorded.

One series addresses PAX6 paired domain WT (human, UniProt P26367 4-136). The note with it: protein: recombinant, tags: N-terminal His6 removed by TEV.
A further series concerns the target PAX6 PD G73D (human, UniProt P26367 4-136, G73D). The note with it: protein: recombinant.
The next series concerns the target PAX6 PD G64V (human, UniProt P26367 4-136, G64V). The settings on record: protein: recombinant.
The target in the next series is PAX6 PD S74G (human, UniProt P26367 4-136, S74G). The settings on record: protein: recombinant.
PAX6 PD S74G, sequence (P26367 4-136 S74G): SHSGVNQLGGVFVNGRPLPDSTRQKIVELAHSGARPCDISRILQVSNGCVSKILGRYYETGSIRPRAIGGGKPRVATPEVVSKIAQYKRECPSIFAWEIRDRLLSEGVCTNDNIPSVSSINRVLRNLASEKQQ
A further series addresses PAX6 PD G72S (human, UniProt P26367 4-136, G72S). The note with it: protein: recombinant.
For the next series, the target named is PAX6 PD G72C (human, UniProt P26367 4-136, G72C). The note with it: protein: recombinant, tags: N-terminal His6 removed by TEV.
PAX6 PD G72C, sequence (P26367 4-136 G72C): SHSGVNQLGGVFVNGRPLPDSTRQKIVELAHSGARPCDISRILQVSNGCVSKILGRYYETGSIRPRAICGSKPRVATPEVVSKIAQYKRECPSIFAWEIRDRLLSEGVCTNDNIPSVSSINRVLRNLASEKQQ
Another series concerns the target PAX6 PD P76R (human, UniProt P26367 4-136, P76R). The note with it: protein: recombinant; 5' overhang 2 nt on each strand (AA/TT), 24 bp.
[1] abbreviates: 5' overhang 2 nt on each strand (AA/TT), 24 bp.

PAX6 PD G73D, sequence (P26367 4-136 G73D): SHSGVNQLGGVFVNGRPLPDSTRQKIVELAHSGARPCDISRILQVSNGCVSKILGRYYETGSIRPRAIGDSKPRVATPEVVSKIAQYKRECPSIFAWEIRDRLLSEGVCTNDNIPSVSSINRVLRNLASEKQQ
PAX6 PD G64V, sequence (P26367 4-136 G64V): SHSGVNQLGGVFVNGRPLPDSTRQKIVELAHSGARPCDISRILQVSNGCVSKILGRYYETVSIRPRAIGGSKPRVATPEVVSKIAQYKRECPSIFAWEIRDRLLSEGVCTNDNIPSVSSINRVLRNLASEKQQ
PAX6 paired domain WT, sequence (P26367 4-136): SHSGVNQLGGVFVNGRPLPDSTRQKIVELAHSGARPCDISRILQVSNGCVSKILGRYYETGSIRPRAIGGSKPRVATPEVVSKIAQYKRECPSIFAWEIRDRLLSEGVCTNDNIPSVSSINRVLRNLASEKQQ
PAX6 PD G72S, sequence (P26367 4-136 G72S): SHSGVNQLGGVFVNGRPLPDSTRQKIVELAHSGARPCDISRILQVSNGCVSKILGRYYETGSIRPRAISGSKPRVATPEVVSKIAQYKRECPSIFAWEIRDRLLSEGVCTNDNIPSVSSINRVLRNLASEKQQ
PAX6 PD P76R, sequence (P26367 4-136 P76R): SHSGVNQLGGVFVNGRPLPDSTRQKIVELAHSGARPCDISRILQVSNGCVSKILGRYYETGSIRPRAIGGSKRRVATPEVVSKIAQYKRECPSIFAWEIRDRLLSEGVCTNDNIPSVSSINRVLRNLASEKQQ

B1: CD19 A-ins (dsDNA)
DNA 1: GAATGGGGCACTGAGGCGTGACCACCGC
DNA 2: GCGGTGGTCACGCCTCAGTGCCCCATTC
A word on the Kd: it is the equilibrium constant for the complex coming apart. With B1, the Kd with PAX6 paired domain WT (blunt) was 952 ± 78 nM; with PAX6 PD G64V (blunt), 2170 ± 162 nM; with PAX6 PD S74G (blunt) it was 943 ± 31 nM; with PAX6 PD G72S (blunt), 980 ± 43 nM; with PAX6 PD G72C (blunt), 5020 ± 360 nM. Besides, the binding result in the series with PAX6 PD G73D (blunt) was “no binding”.

B2: P6CON (dsDNA)
DNA 1: AAATTTTCACGCTTGAGTTCACAGCT
DNA 2: AGCTGTGAACTCAAGCGTGAAAATTT
As for B2, the Kd in the series with PAX6 paired domain WT (blunt) turned out to be 925 ± 47 nM; with PAX6 PD G73D (blunt), 961 ± 48 nM; with PAX6 PD G64V (blunt) it was 1290 ± 78 nM; with PAX6 PD S74G (blunt), 1040 ± 45 nM; with PAX6 PD G72S (blunt), 943 ± 37 nM; in the series with PAX6 PD G72C (blunt), 1410 ± 110 nM.

B3: P6B (dsDNA)
DNA 1: AAGCATTTTCACGCATGAGTGCACAG
DNA 2: TTCTGTGCACTCATGCGTGAAAATGC
Consider B3, for which the Kd came to 740 ± 93 nM in the series with PAX6 PD P76R; 411 ± 68 nM with PAX6 paired domain WT (setting [1]); 489 ± 128 nM in the series with PAX6 PD G73D (setting [1]); 2520 ± 1020 nM with PAX6 PD G64V (setting [1]); 699 ± 180 nM with PAX6 PD S74G (setting [1]); 1200 ± 130 nM with PAX6 PD G72S (setting [1]). Moreover, in the series with PAX6 PD G72C (setting [1]), the Kd stood at 579 ± 370 nM.
